Test results as given in article PMC8967717 (Nature, 2022).
Positions count from the first letter of the chain named.

B1: XGv261 (antibody, V domains shown)
VH: QLQLQESGPGLVRPSETLSLTCTVSGGSITDSGYYWGWIRQPPGKGLEWIGNIFYSGSTYYNPSLKSRVTISVDTSKNQFSLRLSSVTAADTAVYYCAREIGIIDYWGQGSLVIVSS
VL: DIQMTQSPSSLSASVGDRVTITCRASQGISNSLAWYQQKPGKAPKLLLYGASTLESGVPSRFSGSGSGTHFTLTISSLQPEDFATYFCQQYYSSPPRTFGGGTKVEI
B2: XGV042 (antibody, V domains shown)
VH: QITLKESGPTLVKPTQTLTLTCTFSGLSMTTSGVGVGWIRQPPGKALEWLALIYWDDDKRYSPFLKSRLTITKDTSKNQVVLTMTNMDPADTGTYFCAHHTIPSIFDHWGQGTLVTVSS
VL: QSALTQPASVSGSPGQSITISCTATSSDVGVYNYVSWYQQYPGKAPRLIIFEVSNRPSGVSSRFSGSKSGYTASLTISGLQTDDEADYYCSSYTTTSTVFGGGTKLTVL
B3: XGv266 (antibody, V domains shown)
VH: QITLKESGPTLVRPTQTLTLTCTFSGLSLSAPAEGVGWIRQPPGKALEWLALIYWEGDQRYSPSLKSRLTITKDTSKKQVVLTMTNMDPVDTATYYCARHSVATIFDFWGQGTLVTVSS
VL: QSALTQPASVSGSPGQSITISCTGTSSDVGCCNYVSWYQHHPGKAPKLMIYEVTNRPSGISDRFSGSKSGNTASLTISGLQAEDEAAYYCSSYTTSTARVVFGGGTKLTVL
B4: XGv285 (antibody, V domains shown)
VH: QVQLVQSGAEVKKPGASMKVSCKASGYTFISYYMHWVRQAPGQELEWMGIINPSGGSTSYAQKFQGRVTMTRDTSTSTVYMELRSLRSEDTAVYYCARAEGSSWLGWFDPWGQGTLVTVSS
VL: QSVLTQPPSASGTPGQRVTISCSGSSSNIGSNLVYWYQHLPGTAPKLLIYKNTQRPSGVPDRFSGSKSGTSASLAISGLRSDDEGDYYCAAWDDGLSGSGWVFGGGTKVT
B5: XGV026 (antibody, V domains shown)
VH: EVQLVESGGGVIQPGGSLRLSCAASEIIVSSNYMNWVRQAPGKGLEWVSVIYPGGSSFYADSVKGRFTISRDNSKNTLYLQMNSLRVEDTAVYYCARDSPHRPGTIWGQGTLVVVSS
VL: DIQMTQSPSSLSASVGDRVTITCRASQDINNYLNWYQQKPGKAPKLLIYDAFTLEAGVPSRFSGARFGTDFTFTISSLQPEDIATYYCHQCDNLPCTFGGGTKVEIK
B6: XGV016 (antibody, V domains shown)
VH: QVQLVQSGTEVRKPGASVTVSCKASGYTFTTYHMHWVRRAPGQGLEWMGIIDPGTGGASYPQKFRGRVTLTRDTSTNTVYMELSSLRFQDTAIYYCARAEGSSWLGWFDPWGQGTLVTVSS
VL: QSVLTQPPSASGTPGQRVSISCSGSSSNIGTNYVYWYQQLPGTAPKLLIYKNNQRPSGVPDRFSGSKSGTSASLAISGLRSEDEADYFCASWDNGLSGSGWVFGGGTKLTV
B7: XGv264 (antibody, V domains shown)
VH: QITLKESGPTLVKPTQTLTLTCAFSGFSLNTGGAGVGWIRQPPGKALEWLALIYWDGDKRYNPSLKSRLAIIMDTSKNRVVLTMTNMDPVDTATYYCAHHKIEYIFDYWGQGTLVAVSS
VL: QSALTQPASVSGSPGQSITVSCTGTSSDLGNFQYVSWYQHHPGKAPKLLIYEVSHRPSGVSNRFSGSKSGNTASLTISGLQAEDEADYYCCSYTTTTIPVAFGGGTRLTVL
B8: XGv177 (antibody, V domains shown)
VH: EVQLVESGGGLIQPGGSLRLSCAASGVTVSSNYMTWVRQAPGKGLDWVSVIYSGGSTFYADSVKGRFTISRDNSKNTLYLQMNSLRVEDTAVYYCARDLVDYGLDVWGQGTTVTVSS
VL: DIQLTQSPSFLSASVGDRVTITCRASQGIASYLAWYQQKPGKPPKLLIYAASTLQSGVPTRFSGSGSGTEFTLTITSLQPEDFATYYCQLLSRHPPTFGGGTKVEI
B9: XGV017 (antibody, V domains shown)
VH: EVQLVESGGGLIQPGGSLRLSCAASGVTVSSNYMNWVRQAPGKGLEWVSVIYPGGTRDYSDSVKGRFTISRDSSKNTLYLQMNSLRDEDTAFYYCARDLVVYGMDVWGQGTTVTVTS
VL: DIQLTQSPSSLSASVGDRVTITCRASQGISSYLAWYQQKPGKAPKLLIYAASTLQSGVPSRFSGSGSGTDFTLTISSLQPEDFAAYYCQLLNTYPLTFGGGTKVEIK
B10: XGV031 (antibody, V domains shown)
VH: QVQLVQSGAEVKKPGSSVKVSCKASGGTFSNYALSWVRQAPGQGLEWMGGIIPIFGTTNYAQNFQGRVTITADESTSTAYMELSSLRSEDTAVYYCARLDGYSFGHNRYYQDGMDDWGQGTTVTVSS
VL: DIQMTQSPSSLSASVGDRVTITCRASQAIRSDLGWYQQKPGKAPKCLIYAASTLQSGVPSRFSGSGSGTEFTLTISSLQPEDFATYYCLQQNIYPRTFGQGTKVEI
B11: XGv055 (antibody, V domains shown)
VH: B10 VH with N31S, N63K, T76S
VL: DIQMTQSPSSLSASVGDRVTITCRASQGIRNDLGWYQQKPGKAPKCLIYAASTLQSGVPSRFSGSGSGTEFTLTISSLQPEDFATYYCLQQNIYPRTFGQGTKVEIK
B12: XGv051 (antibody, V domains shown)
VH: B10 VH with N63K, N107D, Q119P
VL: B10 VL with S31N, Y87F
B13: XGv053 (antibody, V domains shown)
VH: B10 VH with N31S, S35T, N63K, S84T
VL: B11 VL with G28D
B14: XGv074 (antibody, V domains shown)
VH: EVQLVESGGGLIQPGGSLRLSCAASGITVSANYMSWVRQAPGKGLEWVSVIYSGGSTYYADSVKGRFTISRDHSKNTLYLQMKNLRAEDTAVYYCARDRGSSGYLGDQPYEYWGQGTLVTVSS
VL: DIQMTQSPSSLSASVGDRVTITCQASQDINKYLNWYQQKPGKAPKLLIYGASNLETGVPSRFSGSGSGTDFTFTISSLRPEDIATYYCQQYDPLPVTFGGGTRVEIK
B15: XGV050 (antibody, V domains shown)
VH: EVQLVESGGGLVQPGGSLRLSCAASGFTFSRYDMHWVRQAAGKGLEWVSGIGAPGDTYYAGSVKGRFTISRENAKTSLHLQMNNLRAGDTAVYYCTRGWFGENYMDVWGKGTTVTVSS
VL: EIVLTQSPATLSLSPGERATLSCRASQSVSNHLAWFQQKPGQSPRLLIYDASNRATGIPARFSGSGSGTDFTLTISSLEPEDFAIYYCHQRSNWPTFGQGTKVEIK

target: SARS-CoV-2 wild-type spike (S) protein (SARS-CoV-2, WT (MN908947), UniProt P0DTC2)

| Binder | binding result |
| --- | --- |
| B1 | binds |
| B2 | binds |
| B3 | binds |
| B4 | binds |
| B5 | binds |
| B6 | binds |
| B7 | binds |
| B8 | binds |
| B9 | binds |
| B10 | binds |
| B11 | binds |
| B12 | binds |
| B13 | binds |
| B14 | binds |
| B15 | binds |

target: SARS-CoV-2 wild-type spike receptor-binding domain (SARS-CoV-2, WT (MN908947), UniProt P0DTC2)

| Binder | binding result |
| --- | --- |
| B1 | binds |
| B2 | binds |
| B3 | binds |
| B4 | binds |
| B5 | binds |
| B6 | binds |
| B7 | binds |
| B8 | binds |
| B9 | binds |
| B10 | binds |
| B11 | binds |
| B12 | binds |
| B13 | binds |
| B14 | binds |
| B15 | binds |
